From patent US20170007716A1 (published 2017)

Experiments:
[1] = biological target: T1, human FAP on HT1080 cells (HT1080-huFAP, stable transfectants) (UniProt Q12884 1-760); experiment: FACS
huFAP fusion protein [2] = biological target: T2, huFAP fusion protein (UniProt Q12884 27-760); experiment: ELISA
huFAP fusion protein [3] = biological target: T2, huFAP fusion protein; experiment: ELISA; DAR 3.48
[4] = biological target: T1, human FAP on HT1080 cells …; experiment: FACS; DAR 3.48

T1 sequence (Q12884 whole entry, the tested form may be a part): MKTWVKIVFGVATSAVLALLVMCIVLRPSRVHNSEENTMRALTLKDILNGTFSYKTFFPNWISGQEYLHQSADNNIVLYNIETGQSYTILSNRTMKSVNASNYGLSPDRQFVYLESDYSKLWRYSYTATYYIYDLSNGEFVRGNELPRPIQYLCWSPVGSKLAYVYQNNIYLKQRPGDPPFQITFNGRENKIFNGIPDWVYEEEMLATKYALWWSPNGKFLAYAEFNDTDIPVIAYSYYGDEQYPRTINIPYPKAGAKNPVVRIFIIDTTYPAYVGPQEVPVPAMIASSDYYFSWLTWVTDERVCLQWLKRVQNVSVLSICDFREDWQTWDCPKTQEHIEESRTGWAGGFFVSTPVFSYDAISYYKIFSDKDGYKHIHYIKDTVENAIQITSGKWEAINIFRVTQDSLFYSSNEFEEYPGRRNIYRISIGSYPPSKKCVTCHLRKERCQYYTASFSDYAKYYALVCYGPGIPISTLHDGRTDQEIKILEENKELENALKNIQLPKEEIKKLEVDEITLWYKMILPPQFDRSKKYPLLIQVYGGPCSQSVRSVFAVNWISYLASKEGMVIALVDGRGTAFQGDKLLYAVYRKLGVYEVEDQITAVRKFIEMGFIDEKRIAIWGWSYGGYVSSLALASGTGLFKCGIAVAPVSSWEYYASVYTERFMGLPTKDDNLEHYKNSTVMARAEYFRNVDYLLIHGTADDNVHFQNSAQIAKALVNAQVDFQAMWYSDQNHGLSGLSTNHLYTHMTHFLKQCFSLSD
T2 sequence (Q12884 27-760): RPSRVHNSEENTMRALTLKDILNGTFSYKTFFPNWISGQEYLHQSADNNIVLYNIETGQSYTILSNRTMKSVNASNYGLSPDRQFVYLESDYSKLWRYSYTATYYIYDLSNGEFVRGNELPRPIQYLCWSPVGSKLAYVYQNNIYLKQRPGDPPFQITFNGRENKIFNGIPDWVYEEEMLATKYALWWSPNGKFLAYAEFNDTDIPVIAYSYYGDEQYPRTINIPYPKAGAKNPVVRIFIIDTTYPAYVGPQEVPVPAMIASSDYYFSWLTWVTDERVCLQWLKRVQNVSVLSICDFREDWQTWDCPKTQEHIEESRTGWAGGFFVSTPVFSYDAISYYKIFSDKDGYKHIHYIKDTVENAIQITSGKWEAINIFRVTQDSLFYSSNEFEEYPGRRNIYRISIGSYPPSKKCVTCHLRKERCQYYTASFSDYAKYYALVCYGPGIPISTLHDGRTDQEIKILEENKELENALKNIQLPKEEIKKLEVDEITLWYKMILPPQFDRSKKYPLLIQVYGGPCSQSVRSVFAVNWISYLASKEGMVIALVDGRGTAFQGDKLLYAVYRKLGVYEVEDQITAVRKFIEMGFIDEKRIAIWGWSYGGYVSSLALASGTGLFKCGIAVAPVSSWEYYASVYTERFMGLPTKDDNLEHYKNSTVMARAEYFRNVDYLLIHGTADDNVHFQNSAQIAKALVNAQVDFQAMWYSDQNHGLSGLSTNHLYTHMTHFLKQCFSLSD

| Binder | EC50 [1] [nM] | EC50 (huFAP fusion protein [2]) [nM] | EC50 (huFAP fusion protein [3]) [nM] | EC50 [4] [nM] |
| --- | --- | --- | --- | --- |
| humanized anti-FAP IgG1 hu36 (hu36-IgG1) (antibody, V domains shown) VH: QVQLVQSGAEVKKPGASVKVSCKASGYTFTENIIHWVRQAPGQGLEWMGWFHPGSGSIKYNEKFKDRVTMTADTSTSTVYMELSSLRSEDTAVYYCARHGGTGRGAMDYWGQGTLVTVSS VL: DIQMTQSPSSLSASVGDRVTITCRASKSVSTSAYSYMHWYQQKPGKAPKLLIYLASNLESGVPSRFSGSGSGTDFTLTISSLQPEDFATYYCQHSRELPYTFGQGTKLEIKR | 0.067 | 0.21 |  |  |
| Anti-FAP hu36:TAM471 ADC (ADC-471) (antibody, V domains shown, cytolysin TAM471 through maleimidocaproyl-vcPABA linker on cysteine residues (not site-specific); cytolysin TAM471 through maleimidocaproyl-vcPABA linker on cysteine residues (not site-specific), DAR 3.48 for the whole antibody) VH: QVQLVQSGAEVKKPGASVKVSCKASGYTFTENIIHWVRQAPGQGLEWMGWFHPGSGSIKYNEKFKDRVTMTADTSTSTVYMELSSLRSEDTAVYYCARHGGTGRGAMDYWGQGTLVTVSS VL: DIQMTQSPSSLSASVGDRVTITCRASKSVSTSAYSYMHWYQQKPGKAPKLLIYLASNLESGVPSRFSGSGSGTDFTLTISSLQPEDFATYYCQHSRELPYTFGQGTKLEIKR |  |  | 0.153 | 0.081 |
